Measurements: US20180155406A1 (Sanofi, published 2018)
Numbered stars: 1 amine (or outer) side, 2 acyl side, 3 side chain; on linkers, the order of the positions; unused ones are H or OH. Square brackets hold non-standard residues; d marks the D form. Side chains are listed from the residue outwards. Ends that are not written are not given here. * marks the point of attachment. γGlu = O=C(O)[C@H](CCC(=O)[*:2])N[*:1]; Palmitoyl = CCCCCCCCCCCCCCCC(=O)*; AEEA = NCCOCCOCC(=O)O; Aib = CC(C)(N)C(=O)O

Columns and labels:
Assay in all cases: cell-based or functional assay
human glucagon receptor = human glucagon receptor (human, UniProt P47871 26-477)
human GIP receptor = target: T1, human GIP receptor (human, UniProt P48546 22-466)
T1 sequence (looked up): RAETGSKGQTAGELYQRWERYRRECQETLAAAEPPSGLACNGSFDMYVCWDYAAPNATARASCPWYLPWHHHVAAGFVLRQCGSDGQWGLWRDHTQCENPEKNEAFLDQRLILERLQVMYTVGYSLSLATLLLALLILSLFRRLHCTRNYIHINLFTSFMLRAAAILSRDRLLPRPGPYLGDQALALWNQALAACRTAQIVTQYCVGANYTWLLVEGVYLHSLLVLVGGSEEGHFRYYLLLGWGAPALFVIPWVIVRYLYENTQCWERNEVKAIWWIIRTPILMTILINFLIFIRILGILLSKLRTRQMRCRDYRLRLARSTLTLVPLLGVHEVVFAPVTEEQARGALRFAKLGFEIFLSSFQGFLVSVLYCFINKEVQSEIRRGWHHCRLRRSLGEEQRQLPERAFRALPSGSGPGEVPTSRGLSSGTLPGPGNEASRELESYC

human GLP-1 receptor = human GLP-1 receptor (human, UniProt P43220 24-463)

human glucagon receptor, sequence (P47871 26-477): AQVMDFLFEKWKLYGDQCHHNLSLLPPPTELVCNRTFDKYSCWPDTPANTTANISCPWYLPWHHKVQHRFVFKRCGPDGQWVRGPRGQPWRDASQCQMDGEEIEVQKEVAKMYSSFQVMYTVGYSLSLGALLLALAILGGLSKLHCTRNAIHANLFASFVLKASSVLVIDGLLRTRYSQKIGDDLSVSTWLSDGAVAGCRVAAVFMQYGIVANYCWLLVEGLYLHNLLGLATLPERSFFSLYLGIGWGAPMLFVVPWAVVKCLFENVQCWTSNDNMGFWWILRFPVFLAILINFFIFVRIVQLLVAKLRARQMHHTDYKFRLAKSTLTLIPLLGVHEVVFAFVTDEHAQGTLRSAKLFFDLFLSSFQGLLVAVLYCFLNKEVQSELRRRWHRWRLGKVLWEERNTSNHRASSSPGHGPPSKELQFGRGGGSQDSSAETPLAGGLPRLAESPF

B1: SEQ ID NO: 14 (peptide)
peptide: H[Aib]HGTFTSDLSKLK([γGlu-γGlu-AEEA-Palmitoyl])EEQRQKEFIEWLKAGGHPS[Aib]KPPPK-NH2
modifications: N-terminus assumed
SMILES: CCCCCCCCCCCCCCCC(=O)NCCOCCOCC(=O)N[C@@H](CCC(=O)N[C@@H](CCC(=O)NCCCC[C@H](NC(=O)[C@H](CC(C)C)NC(=O)[C@H](CCCCN)NC(=O)[C@H](CO)NC(=O)[C@H](CC(C)C)NC(=O)[C@H](CC(=O)O)NC(=O)[C@H](CO)NC(=O)[C@@H](NC(=O)[C@H](Cc1ccccc1)NC(=O)[C@@H](NC(=O)CNC(=O)[C@H](Cc1c[nH]cn1)NC(=O)C(C)(C)NC(=O)[C@@H](N)Cc1c[nH]cn1)[C@@H](C)O)[C@@H](C)O)C(=O)N[C@@H](CCC(=O)O)C(=O)N[C@@H](CCC(=O)O)C(=O)N[C@@H](CCC(N)=O)C(=O)N[C@@H](CCCNC(=N)N)C(=O)N[C@@H](CCC(N)=O)C(=O)N[C@@H](CCCCN)C(=O)N[C@@H](CCC(=O)O)C(=O)N[C@@H](Cc1ccccc1)C(=O)N[C@H](C(=O)N[C@@H](CCC(=O)O)C(=O)N[C@@H](Cc1c[nH]c2ccccc12)C(=O)N[C@@H](CC(C)C)C(=O)N[C@@H](CCCCN)C(=O)N[C@@H](C)C(=O)NCC(=O)NCC(=O)N[C@@H](Cc1c[nH]cn1)C(=O)N1CCC[C@H]1C(=O)N[C@@H](CO)C(=O)NC(C)(C)C(=O)N[C@@H](CCCCN)C(=O)N1CCC[C@H]1C(=O)N1CCC[C@H]1C(=O)N1CCC[C@H]1C(=O)N[C@@H](CCCCN)C(N)=O)[C@@H](C)CC)C(=O)O)C(=O)O
Human glucagon receptor
  EC50 hGlucagon R (cAMP formation): 3.4 pM
Human GIP receptor
  EC50 hGIP R (cAMP formation): 1.2 pM
Human GLP-1 receptor
  EC50 hGLP-1R (cAMP formation): 0.9 pM

B2: SEQ ID NO: 16 (peptide)
peptide: H[Aib]HGTFTSDLSKLK([γGlu-Palmitoyl])EEQRQ[Aib]EFIEWLKA[dA]GPPS[Aib]KPPPK-NH2
modifications: N-terminus assumed
SMILES: CCCCCCCCCCCCCCCC(=O)N[C@@H](CCC(=O)NCCCC[C@H](NC(=O)[C@H](CC(C)C)NC(=O)[C@H](CCCCN)NC(=O)[C@H](CO)NC(=O)[C@H](CC(C)C)NC(=O)[C@H](CC(=O)O)NC(=O)[C@H](CO)NC(=O)[C@@H](NC(=O)[C@H](Cc1ccccc1)NC(=O)[C@@H](NC(=O)CNC(=O)[C@H](Cc1c[nH]cn1)NC(=O)C(C)(C)NC(=O)[C@@H](N)Cc1c[nH]cn1)[C@@H](C)O)[C@@H](C)O)C(=O)N[C@@H](CCC(=O)O)C(=O)N[C@@H](CCC(=O)O)C(=O)N[C@@H](CCC(N)=O)C(=O)N[C@@H](CCCNC(=N)N)C(=O)N[C@@H](CCC(N)=O)C(=O)NC(C)(C)C(=O)N[C@@H](CCC(=O)O)C(=O)N[C@@H](Cc1ccccc1)C(=O)N[C@H](C(=O)N[C@@H](CCC(=O)O)C(=O)N[C@@H](Cc1c[nH]c2ccccc12)C(=O)N[C@@H](CC(C)C)C(=O)N[C@@H](CCCCN)C(=O)N[C@@H](C)C(=O)N[C@H](C)C(=O)NCC(=O)N1CCC[C@H]1C(=O)N1CCC[C@H]1C(=O)N[C@@H](CO)C(=O)NC(C)(C)C(=O)N[C@@H](CCCCN)C(=O)N1CCC[C@H]1C(=O)N1CCC[C@H]1C(=O)N1CCC[C@H]1C(=O)N[C@@H](CCCCN)C(N)=O)[C@@H](C)CC)C(=O)O
Human glucagon receptor
  EC50 hGlucagon R (cAMP formation): 4.3 pM
Human GIP receptor
  EC50 hGIP R (cAMP formation): 3.7 pM
Human GLP-1 receptor
  EC50 hGLP-1R (cAMP formation): 7.1 pM

B3: SEQ ID NO: 13 (peptide)
peptide: H[Aib]HGTFTSDLSKLK([γGlu-γGlu-Palmitoyl])EEQRQ[Aib]EFIEWLKA[dA]GHPS[Aib]KPPPK-NH2
modifications: N-terminus assumed
SMILES: CCCCCCCCCCCCCCCC(=O)N[C@@H](CCC(=O)N[C@@H](CCC(=O)NCCCC[C@H](NC(=O)[C@H](CC(C)C)NC(=O)[C@H](CCCCN)NC(=O)[C@H](CO)NC(=O)[C@H](CC(C)C)NC(=O)[C@H](CC(=O)O)NC(=O)[C@H](CO)NC(=O)[C@@H](NC(=O)[C@H](Cc1ccccc1)NC(=O)[C@@H](NC(=O)CNC(=O)[C@H](Cc1c[nH]cn1)NC(=O)C(C)(C)NC(=O)[C@@H](N)Cc1c[nH]cn1)[C@@H](C)O)[C@@H](C)O)C(=O)N[C@@H](CCC(=O)O)C(=O)N[C@@H](CCC(=O)O)C(=O)N[C@@H](CCC(N)=O)C(=O)N[C@@H](CCCNC(=N)N)C(=O)N[C@@H](CCC(N)=O)C(=O)NC(C)(C)C(=O)N[C@@H](CCC(=O)O)C(=O)N[C@@H](Cc1ccccc1)C(=O)N[C@H](C(=O)N[C@@H](CCC(=O)O)C(=O)N[C@@H](Cc1c[nH]c2ccccc12)C(=O)N[C@@H](CC(C)C)C(=O)N[C@@H](CCCCN)C(=O)N[C@@H](C)C(=O)N[C@H](C)C(=O)NCC(=O)N[C@@H](Cc1c[nH]cn1)C(=O)N1CCC[C@H]1C(=O)N[C@@H](CO)C(=O)NC(C)(C)C(=O)N[C@@H](CCCCN)C(=O)N1CCC[C@H]1C(=O)N1CCC[C@H]1C(=O)N1CCC[C@H]1C(=O)N[C@@H](CCCCN)C(N)=O)[C@@H](C)CC)C(=O)O)C(=O)O
Human glucagon receptor
  EC50 hGlucagon R (cAMP formation): 2.1 pM
Human GIP receptor
  EC50 hGIP R (cAMP formation): 2.7 pM
Human GLP-1 receptor
  EC50 hGLP-1R (cAMP formation): 2.8 pM

B4: SEQ ID NO: 15 (peptide)
peptide: H[Aib]HGTFTSDLSKLK([γGlu-γGlu-AEEA-Palmitoyl])EEQRQKEFIEWLKA[dA]GHPS[Aib]KPPPK-NH2
modifications: N-terminus assumed
SMILES: CCCCCCCCCCCCCCCC(=O)NCCOCCOCC(=O)N[C@@H](CCC(=O)N[C@@H](CCC(=O)NCCCC[C@H](NC(=O)[C@H](CC(C)C)NC(=O)[C@H](CCCCN)NC(=O)[C@H](CO)NC(=O)[C@H](CC(C)C)NC(=O)[C@H](CC(=O)O)NC(=O)[C@H](CO)NC(=O)[C@@H](NC(=O)[C@H](Cc1ccccc1)NC(=O)[C@@H](NC(=O)CNC(=O)[C@H](Cc1c[nH]cn1)NC(=O)C(C)(C)NC(=O)[C@@H](N)Cc1c[nH]cn1)[C@@H](C)O)[C@@H](C)O)C(=O)N[C@@H](CCC(=O)O)C(=O)N[C@@H](CCC(=O)O)C(=O)N[C@@H](CCC(N)=O)C(=O)N[C@@H](CCCNC(=N)N)C(=O)N[C@@H](CCC(N)=O)C(=O)N[C@@H](CCCCN)C(=O)N[C@@H](CCC(=O)O)C(=O)N[C@@H](Cc1ccccc1)C(=O)N[C@H](C(=O)N[C@@H](CCC(=O)O)C(=O)N[C@@H](Cc1c[nH]c2ccccc12)C(=O)N[C@@H](CC(C)C)C(=O)N[C@@H](CCCCN)C(=O)N[C@@H](C)C(=O)N[C@H](C)C(=O)NCC(=O)N[C@@H](Cc1c[nH]cn1)C(=O)N1CCC[C@H]1C(=O)N[C@@H](CO)C(=O)NC(C)(C)C(=O)N[C@@H](CCCCN)C(=O)N1CCC[C@H]1C(=O)N1CCC[C@H]1C(=O)N1CCC[C@H]1C(=O)N[C@@H](CCCCN)C(N)=O)[C@@H](C)CC)C(=O)O)C(=O)O
Human glucagon receptor
  EC50 hGlucagon R (cAMP formation): 4.5 pM
Human GIP receptor
  EC50 hGIP R (cAMP formation): 1.8 pM
Human GLP-1 receptor
  EC50 hGLP-1R (cAMP formation): 1.1 pM
